The term Kd denotes the concentration at which binding is half-saturated. A higher Kd goes with weaker binding.

1 molecule from publication PMC12661054 (2025) can be followed below.

Ends that are not written are not given here.

Assay [1] addresses T1, GST-TOPBP1(BRCT0-2 1-290) WT (human, UniProt Q92547 1-290).
T1 chain: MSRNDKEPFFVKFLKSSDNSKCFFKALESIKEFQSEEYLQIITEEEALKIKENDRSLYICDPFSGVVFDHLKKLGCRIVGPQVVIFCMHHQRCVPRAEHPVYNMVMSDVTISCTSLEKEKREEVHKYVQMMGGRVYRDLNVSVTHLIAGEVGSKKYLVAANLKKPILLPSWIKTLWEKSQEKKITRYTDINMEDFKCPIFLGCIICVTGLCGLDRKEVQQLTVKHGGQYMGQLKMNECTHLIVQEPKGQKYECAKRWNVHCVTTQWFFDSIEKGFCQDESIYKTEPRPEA
The assay is described as follows: FP.

The target of assay [2] is GST-TOPBP1(BRCT0-2 1-290) K250E (human, UniProt Q92547 1-290, K250E). The assay can be described thus: FP.

Consider fluorescein-GYGTSWLVPATPLASRSR (also: phosphothreonine at Thr1260, position in chain not mapped) [Flu-SLX4_pT1260], for which the results for the Kd in assay [1] and in assay [2] were 3.29 µM and 3.55 µM, respectively.
